In US20230348569A1:

Target: SARS-CoV-2 spike protein variant V376F on VSV pseudoparticles (SARS-CoV-2) (UniProt P0DTC2)
Assay: cell-based or functional assay

mAb10987 (antibody)
Neutralization IC50: 0.0178 nM
